According to EP0659766A1:

Target: T1, IL-1 receptors expressed on murine thymoma EL4 cells (murine) (UniProt P13504)
T1 sequence (looked up): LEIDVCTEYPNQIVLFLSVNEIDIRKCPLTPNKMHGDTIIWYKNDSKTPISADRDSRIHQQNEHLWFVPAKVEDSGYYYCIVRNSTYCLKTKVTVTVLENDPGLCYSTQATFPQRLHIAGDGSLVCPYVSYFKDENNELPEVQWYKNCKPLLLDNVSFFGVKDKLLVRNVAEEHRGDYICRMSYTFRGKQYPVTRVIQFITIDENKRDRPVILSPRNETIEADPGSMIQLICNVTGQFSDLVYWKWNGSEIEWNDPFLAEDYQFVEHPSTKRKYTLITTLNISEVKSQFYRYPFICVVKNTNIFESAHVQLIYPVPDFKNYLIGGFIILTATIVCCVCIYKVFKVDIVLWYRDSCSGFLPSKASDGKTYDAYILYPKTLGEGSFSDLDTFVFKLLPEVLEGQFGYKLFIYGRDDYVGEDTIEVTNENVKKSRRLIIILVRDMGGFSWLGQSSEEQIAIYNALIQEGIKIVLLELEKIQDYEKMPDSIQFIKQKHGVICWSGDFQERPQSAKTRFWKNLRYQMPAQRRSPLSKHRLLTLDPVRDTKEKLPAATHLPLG
Assay: binding of 70 pM human ¹²⁵I-IL-1α to 1 x 10⁶ EL4 cells, no serum

- ¹²⁵I-IL-1α bound to EL4 cells (cpm): 4520 cpm
B1: recombinant human IL-1 alpha (IL-1α) (ligand, UniProt P01583 113-271, looked up)
chain: SAPFSFLSNVKYNFMRIIKYEFILNDALNQSIIRANDQYLTAAALHNLDEAVKFDMGAYKSSKDDAKITVILRISKTQLYVTAQDEDQPVLLKEMPEIPKTITGSETNLLFFWETHGTKNYFTSVAHPNLFIATKQDYWVCLAGGPPSITDFQILENQA
